± gives the uncertainty stated by the source.

A short description of this series: amyloid nucleation score (Sup35N fusion, yeast selection) (log enrichment); library NNK2; higher = more nucleation; inactive = no reads after selection. Put shortly: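 Growth for 7 days at 30°C on medium lacking adenine and uracil followed a 24-hour induction with 100 μM copper sulfate of psi-negative yeast expressing peptides of 20 random codons fused to Sup35N. Input and output plasmid inserts were sequenced with Illumina, and sequences with under 100 input reads were excluded. Nucleation score is the DiMSum log enrichment of output over input reads, centred on the mode score of non-aggregating sequences.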
On to LASTVNIEMVSVHRDWCVWM, for which the amyloid nucleation score is 5.326 ± 0.029.

As for LATLRLWVTCQRIGISRRKG, the amyloid nucleation score was 7.017 ± 0.037.

Substance LCDGAMRMCGWMKLGVQLGV showed an amyloid nucleation score of 2.82 ± 0.15.

Regarding LCDMI, the amyloid nucleation score was 0.544 ± 0.29.

On to LCDWCVLS, for which the amyloid nucleation score entry was “inactive”.

Substance LCENWSSLFITMKPYDFSFP displayed an amyloid nucleation score of -0.43 ± 1.1.

In turn, LCFKLMNSKSWMRIQTAWTL came in with an amyloid nucleation score of 0.384 ± 0.34.

For the substance LCFLVFMLRPRLASLYSRML, the amyloid nucleation score is -1.11 ± 0.36.

LCFNLLNPCGRFGVECGCVL returned an amyloid nucleation score of 4.53 ± 0.069.

With LCGSRKRCGEMLRRKLGKYV, the amyloid nucleation score amounted to 0.602 ± 0.81.

LCGTLLIMKRVMSGYNLQAK gave an amyloid nucleation score of -0.37 ± 0.26.

Regarding LCGWHD, the amyloid nucleation score was found to be 0.733 ± 0.47.

The substance LCHEQLCGFRMFCYSHGR yielded an amyloid nucleation score of 3.58 ± 0.11.

LCHKATSSFYPW had an amyloid nucleation score of -0.808 ± 0.45.

Consider LCIGYFLV, for which the amyloid nucleation score is -1.62 ± 1.1.

LCLTYYRDHGVLASMYFHVW showed an amyloid nucleation score of 0.529 ± 0.31.

Substance LCMQSVSGALSPSARRRLCV displayed an amyloid nucleation score of -0.235 ± 1.1.

LCNNPNGGIGQLKVL gave an amyloid nucleation score of 0.515 ± 0.64.

In turn, LCQHREMALMLGGEPADDWG displayed an amyloid nucleation score of 1.87 ± 0.36.

In the case of LCRCNATRGGCCLFLGCFWL, the amyloid nucleation score was 2.73 ± 0.09.

Take LCRKRYVRSHTTSWQTGGAF: the amyloid nucleation score is 0.888 ± 0.48.

With LCRVALKEDS, the amyloid nucleation score is 0.436 ± 0.8.

Substance LCSYANKDFKVHRSHDFVRV gave an amyloid nucleation score of 0.369 ± 0.43.

The substance LCWLIVGKCGKGKTYDGFIG registered an amyloid nucleation score of -0.78 ± 1.1.

LCYMFIFRTWMLLWVQTMKN: the amyloid nucleation score entry was “inactive”.

The substance LDAERM showed an amyloid nucleation score of 0.306 ± 0.23.

LDALGLDTFNMQLV: the amyloid nucleation score worked out at 0.236 ± 0.28.

With LDDWDGKTSRIHSGFYSRLR, the amyloid nucleation score was 0.224 ± 0.52.

The substance LDLRMRYQVPYQWGTNSAEN yielded an amyloid nucleation score of 0.629 ± 0.48.

Substance LDNWEL registered an amyloid nucleation score of 0.145 ± 0.16.

On to LDRMSRIRGSCRYACVL, for which the amyloid nucleation score amounted to 1.15 ± 0.41.

Regarding LDVKERTCL, the amyloid nucleation score came to 0.261 ± 0.54.

With LDVYQ, the amyloid nucleation score is -0.711 ± 0.64.

Substance LDWPDLENQAVVVNTWVSE showed an amyloid nucleation score of 0.279 ± 0.5.

LDWRTQFLCV registered an amyloid nucleation score of 1.19 ± 0.61.

In the case of LDYFNYCSSLGFHMVSVVYV, the amyloid nucleation score result is “inactive”.

Turning to LDYSNFNTRKFAKDEGDMRR, the amyloid nucleation score is 8.371 ± 0.049.

As to LEKKLFVKVYRHSICIGVAE, the amyloid nucleation score is 1.9 ± 0.43.

In turn, LELKDNMAFDRSLFLKRHGG displayed an amyloid nucleation score of -0.243 ± 0.28.

In turn, LEPYLS had an amyloid nucleation score of -0.48 ± 0.49.

Substance LERWYYPMS yielded an amyloid nucleation score of 0.513 ± 0.16.

In turn, LEVRSAWGHLPFMSPEGL returned an amyloid nucleation score of -1.17 ± 0.44.

In the case of LFAKDGLRSRLKEC, the amyloid nucleation score was -0.033 ± 0.27.

For LFDLWSVEFC, the amyloid nucleation score is -0.392 ± 0.43.

Substance LFEDVMRKGRWRDASGRWKH showed an amyloid nucleation score of 3.27 ± 0.17.

The substance LFFCDPWPHLMWHLPRIVHL yielded an amyloid nucleation score of -0.748 ± 0.42.

LFFSCHRVDCHSALNMFIVS displayed an amyloid nucleation score of 5.53 ± 0.065.

As to LFGHLVLYYPFSSTINCVVV, the amyloid nucleation score is 5.59 ± 0.056.

LFGSVHGLTCVLSGLYCVQH showed an amyloid nucleation score of 10.32 ± 0.04.

Substance LFIGSIILHYGEKEVKMLAT gave an amyloid nucleation score of 0.571 ± 0.49.

For LFIRINWDFSNLWGTFGITV, the amyloid nucleation score is 0.553 ± 0.2.

Regarding LFKDMYSDLKHILNCGFQTT, the amyloid nucleation score was -0.711 ± 0.45.

LFKMCTSVFRVCSAGMMELG showed an amyloid nucleation score of 0.35 ± 0.27.

For the substance LFLSGKEIPMNVFTIVCTDP, the amyloid nucleation score entry was “inactive”.

LFLTACER returned an amyloid nucleation score of 6.721 ± 0.043.

In turn, LFLTDTLMMYINSECR came in with an amyloid nucleation score of 1.75 ± 0.087.

The substance LFPLHFCNEHIMRLIKKLTG registered an amyloid nucleation score of 0.579 ± 0.8.

LFRDTSQLGNSVIVTYYM registered an amyloid nucleation score of 9.029 ± 0.052.

LFRYQRPLYGVRRTSTKVMA: the amyloid nucleation score was 0.226 ± 0.37.

LFSHELADSSTVMKYTWWAV gave an amyloid nucleation score of 4.23 ± 0.045.

In turn, LFSTTRFVAHKAGR showed an amyloid nucleation score of 0.47 ± 0.33.

In the case of LFSVVLVGGARRSYLRGGPG, the amyloid nucleation score amounted to 0.611 ± 0.81.

Consider LFSYDDMGALRVNMDWFYNF, for which the amyloid nucleation score entry is “inactive”.

In the case of LFTGRNRTSTHSSDISSRN, the amyloid nucleation score stood at 0.531 ± 0.66.

Regarding LFVIGLLSGVSICVYCRSWS, the amyloid nucleation score turned out to be 3.41 ± 0.11.

With LFVKTLGFLAVCASQ, the amyloid nucleation score was 0.609 ± 0.64.

For the substance LFWIGWLRRRKKGIGVANKG, the amyloid nucleation score came to 0.001 ± 0.49.

LGCEDIHKEYSLHFSIWMQM had an amyloid nucleation score of 0.975 ± 0.18.

The substance LGCYTYLQEVRMGEDTARGG yielded an amyloid nucleation score of 0.386 ± 0.39.

In turn, LGDVYMWIFKKLLWVNHWDV came in with an amyloid nucleation score of -0.033 ± 0.44.

The substance LGGGHKMDLFCYMISIWYYM had an amyloid nucleation score of 2.77 ± 0.18.

Turning to LGHILV, the amyloid nucleation score entry is “inactive”.

Regarding LGIDAYCPWCVYECFSSRGE, the amyloid nucleation score came to 9.586 ± 0.057.

In the case of LGLAVKSRTPDLTGGPRASE, the amyloid nucleation score worked out at 1.68 ± 0.18.

LGLNLTRDYLMLGKRLKCCR gave an amyloid nucleation score of -0.993 ± 0.78.

In turn, LGNDR displayed an amyloid nucleation score of -0.744 ± 0.48.

In the case of LGRNGASYLNDSCRIPNAGK, the amyloid nucleation score was -0.562 ± 0.56.

LGSAYSGKPHVFCS: the amyloid nucleation score result was “inactive”.

In turn, LGSLNNPA gave an amyloid nucleation score of 7.941 ± 0.077.

For the substance LGYIRCLHSVSYLLFMYMLF, the amyloid nucleation score entry is “inactive”.

Take LGYRRSCEQGWGMLLGNYSH: the amyloid nucleation score result was “inactive”.

The substance LHCYCDLDDALTNPPAHHSR had an amyloid nucleation score of 0.605 ± 0.34.

LHQRLV returned an amyloid nucleation score of 0.195 ± 0.27.

In the case of LHTWSVSLVYYNVFYLSSRA, the amyloid nucleation score is -0.417 ± 1.1.

The substance LHWGEFEYCILCARGDIKR came in with an amyloid nucleation score of -0.755 ± 0.5.

On to LHWKWQMNCLWSEGSHCFNN, for which the amyloid nucleation score is 0.116 ± 0.33.

With LIDRIKWEGPFRIRWLFSWF, the amyloid nucleation score is 0.566 ± 0.66.

In the case of LIFFCLFEYRLRLHCNRRDH, the amyloid nucleation score is -1.34 ± 0.49.

In the case of LIFFYSS, the amyloid nucleation score was -1.05 ± 1.

In turn, LIFQVMFVDCIEFRCWNMAL yielded an amyloid nucleation score of 0.959 ± 0.6.

In the case of LILNIRTTGCGYFC, the amyloid nucleation score was 8.818 ± 0.049.

The substance LINCSSTLITIYSRYNAMYF had an amyloid nucleation score of 5.415 ± 0.049.

In turn, LINLVWTDEITMSDYMKRSG registered an amyloid nucleation score of 0.858 ± 0.17.

On to LIPHSTSHRGFKLYSRVFYP, for which the amyloid nucleation score was -0.047 ± 1.1.

For the substance LIQSFSVLAMHDRLGCWRLR, the amyloid nucleation score came to 2.74 ± 0.12.

LIQVGQSST: the amyloid nucleation score was determined as 0.046 ± 0.49.

Turning to LIRFTLMSTFEITIMSFRCV, the amyloid nucleation score is 0.934 ± 0.2.

For the substance LIRSFNSSYVEGRHANI, the amyloid nucleation score was found to be 2.69 ± 0.14.

Turning to LISSSFRSVLRPNWTPLKVC, the amyloid nucleation score entry was “inactive”.

On to LISVSTRKCVIIG, for which the amyloid nucleation score was -0.326 ± 0.45.

In the case of LIVESI, the amyloid nucleation score result was “inactive”.

As for LIVKCSYLSWQAGIWAGFGY, the amyloid nucleation score was determined as 2.9 ± 0.089.

LKGSRNRATSDKGWKEG yielded an amyloid nucleation score of 0.306 ± 0.8.

LKISVCQLRLFKLGARTRGW yielded an amyloid nucleation score of 0.158 ± 0.8.

LKLASSGVHCLLFSYCRMAE displayed an amyloid nucleation score of 0.69 ± 0.62.

In turn, LKMKFSYDWGVDTILLCRKA registered an amyloid nucleation score of 0.284 ± 1.1.

LKQLKISRRADNYVTQCNLV returned an amyloid nucleation score of 2.91 ± 0.11.

LKVISTCLRWQHASLPCQ: the amyloid nucleation score was found to be 0.822 ± 0.43.

Consider LKYCVH, for which the amyloid nucleation score was -0.414 ± 0.61.

On to LKYIPRWVGTSLLQRKLCDF, for which the amyloid nucleation score is -0.711 ± 1.1.

In turn, LLANPIELRRYGPTSLKVGI yielded an amyloid nucleation score of -0.669 ± 0.55.

For the substance LLARVYKTICCMNWGFRNE, the amyloid nucleation score came out at 2.06 ± 0.1.

Regarding LLCNGVSGGQTNQDIFHMPC, the amyloid nucleation score entry was “inactive”.

Turning to LLCYRWGHVN, the amyloid nucleation score amounted to 0.057 ± 0.76.

LLFMKTFVVRP had an amyloid nucleation score of 0.494 ± 0.26.

For the substance LLFRRMEKSRLSLERV, the amyloid nucleation score is -0.257 ± 0.45.

The substance LLFSG showed an amyloid nucleation score of 1.62 ± 0.32.

Regarding LLFWLIRETRSLLSIYLVGT, the amyloid nucleation score is 0.198 ± 0.46.

Substance LLGESRGVDSLQTTLWRSRR gave an amyloid nucleation score of 0.334 ± 0.24.

Consider LLGLHELSTS, for which the amyloid nucleation score was 0.334 ± 0.46.

LLGVFTETKGNP showed an amyloid nucleation score of 2.53 ± 0.11.

The substance LLHSWSYRCV registered an amyloid nucleation score of 0.039 ± 0.77.

In turn, LLIRYSGFFCAPALTIPCGS showed an amyloid nucleation score of 5.12 ± 0.078.

The substance LLLCYS came in with an amyloid nucleation score of -0.344 ± 0.27.

Substance LLLNLRQGMTKIPIGFILLI came in with an amyloid nucleation score of -0.64 ± 0.36.

As to LLLVHL, the amyloid nucleation score was 1.08 ± 0.68.

As for LLNFGVLGSDLSINKCNFSS, the amyloid nucleation score is 1.89 ± 0.18.

The substance LLNGPVYFFNLWVHGAC returned an amyloid nucleation score of 8.126 ± 0.052.

For the substance LLNVIVVRIK, the amyloid nucleation score amounted to 5.313 ± 0.03.

As for LLPSSFVGGVNDVVELLSCG, the amyloid nucleation score was determined as 0.092 ± 1.1.

In the case of LLRLRECQV, the amyloid nucleation score stood at 2.73 ± 0.14.

Take LLRMLSYR: the amyloid nucleation score turned out to be 0.138 ± 1.1.

As to LLRVDRCCWDN, the amyloid nucleation score is -0.011 ± 0.54.

Regarding LLSSWNKSYKIRTIGIIGNV, the amyloid nucleation score is -0.848 ± 0.25.

With LLTLFG, the amyloid nucleation score was -0.087 ± 0.56.

LLTYYFVLTLVPSMFTSFVF showed an amyloid nucleation score of 1.49 ± 0.15.

LLVDTNYSSQMASERFRTCG: the amyloid nucleation score was -0.34 ± 0.37.

LLVGIGMFEEQFQLYHI displayed an amyloid nucleation score of -0.867 ± 0.29.

The substance LLVML returned an amyloid nucleation score of 0.851 ± 0.46.

LLVRLSVCLSSEPANWDTG came in with an amyloid nucleation score of 4.2 ± 0.073.

As to LLVVIPYGSYWDV, the amyloid nucleation score was -0.501 ± 0.78.

For the origin of these results see the supplement of paper PMC12042874.
